± gives the standard deviation of the averaged measurements.
B1: library; a variant is named by its letters at N, in order (parent)
chain: GCUGUCACCGAGAAACUGUGAAGUAUAUCUUAAACCUGGGCACUUAAAAGAUAUAUGGAGUUAGUAGUGCAACCUGCUCGGUCUGAUGAGUCCNNNNNNGGACGAAACAGC

Columns and labels:
cyclic di-GMP [1] = variants of: B1; assay: normalized RNA/DNA level without ligand (relative to sTRSVctl = 100) (log10 (% of sTRSVctl)); HEK293T; ligand: cyclic di-GMP (c-di-GMP-II aptamer); higher = less ribozyme self-cleavage, higher mRNA level; settings: reporter: mCherry (pCS4076), ligand present: no
How it was run: (§1)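 Ribozyme switch library plasmids with mCherry reporters (eGFP in certain ligand experiments) went into HEK293T cells at 4 µg per 6-well well. Where ligand was used, it was applied 1 h before transfection, and total RNA was extracted with EDTA 72 h later for reverse transcription, amplification, barcoding and sequencing. RNA level is the RNA-to-DNA read ratio normalized to a spiked-in non-cleaving sequence or to the leading sequences, then scaled and log-transformed. Scaling was ×100 with log10, the leading set comprised 25 sequences, and the cutoff was ≥100 DNA reads.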

cyclic di-GMP [2] = variants of: B1; assay: normalized RNA/DNA level with ligand (relative to sTRSVctl = 100) (log10 (% of sTRSVctl)); HEK293T; ligand: cyclic di-GMP (c-di-GMP-II aptamer); ligand concentration (+) RNA-Seq: 1 mM; higher = less ribozyme self-cleavage, higher mRNA level; settings: reporter: mCherry (pCS4076), ligand present: yes
How it was run: as §1

Row | Variant | normalized RNA/DNA level without ligand (log10) (cyclic di-GMP [1]) | normalized RNA/DNA level with ligand (log10) (cyclic di-GMP [2])
1 | AGAGCC | 1.78 ± 0.041 | 1.88 ± 0.12
2 | AGAGCG | 1.81 ± 0.05 | 1.84 ± 0.17
3 | AGAGCA | 1.806 ± 0.017 | 1.87 ± 0.098
4 | AGAGCU | 1.713 ± 0.012 | 1.84 ± 0.043
5 | GGACCU | 1.74 ± 0.07 | 1.85 ± 0.05
6 | GGACCA | 1.72 ± 0.021 | 1.81 ± 0.021
7 | CCUUAC | 1.71 ± 0.0031 | 1.83 ± 0.12
8 | CCUUAU | 1.6 ± 0.034 | 1.79 ± 0.087
9 | AGACUC | 1.74 ± 0.054 | 1.83 ± 0.094
10 | AGACUG | 1.749 ± 0.013 | 1.84 ± 0.071
11 | AGACUU | 1.679 ± 0.0077 | 1.84 ± 0.13
12 | GCUUGG | 1.59 ± 0.023 | 1.8 ± 0.072
13 | GCUUGA | 1.54 ± 0.08 | 1.76 ± 0.12
14 | GCUUGU | 1.577 ± 0.005 | 1.75 ± 0.15
15 | GCUUGC | 1.77 ± 0.057 | 1.87 ± 0.17
16 | AGAGAU | 1.661 ± 0.0087 | 1.79 ± 0.11
17 | AGAGAG | 1.46 ± 0.09 | 1.64 ± 0.14
18 | AGAGAC | 1.56 ± 0.035 | 1.69 ± 0.088
19 | UCUUAU | 1.683 ± 0.012 | 1.85 ± 0.14
20 | UCUUAA | 1.64 ± 0.07 | 1.81 ± 0.044
21 | UCUUAC | 1.704 ± 0.017 | 1.86 ± 0.054
22 | ACUCUG | 1.602 ± 0.0083 | 1.81 ± 0.096
23 | ACUCUC | 1.77 ± 0.076 | 1.86 ± 0.12
24 | ACUCUA | 1.6 ± 0.046 | 1.77 ± 0.081

Row | Variant | normalized RNA/DNA level without ligand (log10) (cyclic di-GMP [1]) | normalized RNA/DNA level with ligand (log10) (cyclic di-GMP [2])
25 | CGAAAG | 1.78 ± 0.056 | 1.88 ± 0.046
26 | CGAAAU | 1.42 ± 0.055 | 1.63 ± 0.12
27 | AGAACG | 1.463 ± 0.001 | 1.67 ± 0.094
28 | ACUUCA | 1.648 ± 0.014 | 1.83 ± 0.082
29 | ACUUCU | 1.707 ± 0.0019 | 1.84 ± 0.057
30 | ACUUCC | 1.776 ± 0.013 | 1.89 ± 0.08
31 | ACUUCG | 1.66 ± 0.067 | 1.79 ± 0.069
32 | UGACAG | 1.712 ± 0.0029 | 1.82 ± 0.097
33 | UGACAU | 1.62 ± 0.074 | 1.81 ± 0.075
34 | UGACAA | 1.69 ± 0.018 | 1.8 ± 0.11
35 | UGACAC | 1.7 ± 0.022 | 1.87 ± 0.086
36 | UGAACC | 1.78 ± 0.022 | 1.86 ± 0.12
37 | UGAACA | 1.75 ± 0.037 | 1.87 ± 0.074
38 | UGAACU | 1.72 ± 0.052 | 1.86 ± 0.11
39 | UGAAGA | 1.62 ± 0.024 | 1.77 ± 0.13
40 | UGAAGG | 1.661 ± 0.00062 | 1.84 ± 0.08
41 | UGAAGC | 1.679 ± 0.0046 | 1.83 ± 0.14
42 | CCUCGA | 1.71 ± 0.058 | 1.84 ± 0.093
43 | CCUCGG | 1.838 ± 0.011 | 1.94 ± 0.025
44 | CCUCGC | 1.745 ± 0.0039 | 1.82 ± 0.14
45 | CCUCGU | 1.75 ± 0.057 | 1.86 ± 0.084
46 | GGACUC | 1.757 ± 0.0094 | 1.92 ± 0.082
47 | GCUUAC | 1.53 ± 0.026 | 1.75 ± 0.075
48 | GCUUAU | 1.6 ± 0.017 | 1.76 ± 0.13

Row | Variant | normalized RNA/DNA level without ligand (log10) (cyclic di-GMP [1]) | normalized RNA/DNA level with ligand (log10) (cyclic di-GMP [2])
49 | UGACGA | 1.595 ± 0.015 | 1.78 ± 0.091
50 | UGACGG | 1.68 ± 0.039 | 1.82 ± 0.11
51 | UGACGU | 1.57 ± 0.12 | 1.74 ± 0.13
52 | UCUUGG | 1.84 ± 0.039 | 1.93 ± 0.15
53 | UCUUGU | 1.732 ± 0.004 | 1.88 ± 0.1
54 | UCUUGC | 1.752 ± 0.0056 | 1.88 ± 0.11
55 | UCUGAG | 1.66 ± 0.056 | 1.78 ± 0.098
56 | UCUGAC | 1.677 ± 0.011 | 1.84 ± 0.12
57 | ACUGGC | 1.61 ± 0.084 | 1.79 ± 0.12
58 | GGACAC | 1.71 ± 0.053 | 1.84 ± 0.13
59 | GCUUCG | 1.67 ± 0.022 | 1.76 ± 0.076
60 | GCUUCC | 1.72 ± 0.023 | 1.85 ± 0.034
61 | AGAAUA | 1.43 ± 0.091 | 1.63 ± 0.098
62 | CGAACU | 1.48 ± 0.18 | 1.72 ± 0.042
63 | CGAACG | 1.75 ± 0.056 | 1.9 ± 0.089
64 | CGAACC | 1.679 ± 0.01 | 1.8 ± 0.098
65 | CCUCUA | 1.427 ± 0.0066 | 1.68 ± 0.13
66 | CCUCUU | 1.63 ± 0.017 | 1.81 ± 0.15
67 | CCUCUC | 1.79 ± 0.053 | 1.89 ± 0.14
68 | CCUCUG | 1.63 ± 0.058 | 1.81 ± 0.1
69 | GCUGCU | 1.682 ± 0.0098 | 1.8 ± 0.11
70 | GCUGCC | 1.67 ± 0.067 | 1.83 ± 0.16
71 | AGACGG | 1.62 ± 0.088 | 1.78 ± 0.089
72 | CCUUCG | 1.74 ± 0.0028 | 1.87 ± 0.14

Row | Variant | normalized RNA/DNA level without ligand (log10) (cyclic di-GMP [1]) | normalized RNA/DNA level with ligand (log10) (cyclic di-GMP [2])
73 | CCUUCC | 1.779 ± 0.0029 | 1.87 ± 0.12
74 | UGAGAG | 1.6931 ± 0.00099 | 1.87 ± 0.098
75 | UGAGAU | 1.608 ± 0.0039 | 1.78 ± 0.11
76 | UGAGAC | 1.71 ± 0.022 | 1.8 ± 0.093
77 | UGAGAA | 1.6654 ± 7.7e-05 | 1.81 ± 0.1
78 | ACUCCG | 1.746 ± 0.0086 | 1.83 ± 0.15
79 | ACUCCU | 1.72 ± 0.051 | 1.9 ± 0.1
80 | GGACGC | 1.656 ± 0.0062 | 1.82 ± 0.1
81 | ACUUGU | 1.668 ± 0.004 | 1.83 ± 0.1
82 | ACUUGC | 1.69 ± 0.029 | 1.83 ± 0.084
83 | ACUUGG | 1.59 ± 0.048 | 1.75 ± 0.13
84 | ACUUGA | 1.49 ± 0.11 | 1.72 ± 0.13
85 | UGAAAG | 1.77 ± 0.047 | 1.87 ± 0.1
86 | UGAAAC | 1.705 ± 0.017 | 1.84 ± 0.062
87 | UGAAAA | 1.73 ± 0.024 | 1.82 ± 0.1
88 | GGAAGC | 1.634 ± 0.0082 | 1.76 ± 0.054
89 | UGACUG | 1.7 ± 0.033 | 1.84 ± 0.11
90 | UGACUU | 1.68 ± 0.043 | 1.85 ± 0.13
91 | UGACUA | 1.665 ± 0.0041 | 1.78 ± 0.084
92 | ACUGUU | 1.452 ± 0.011 | 1.67 ± 0.13
93 | ACUGUC | 1.63 ± 0.036 | 1.8 ± 0.15
94 | ACUGUG | 1.6 ± 0.038 | 1.76 ± 0.11
95 | UCUGCG | 1.78 ± 0.035 | 1.85 ± 0.12
96 | UCUGCC | 1.8 ± 0.045 | 1.91 ± 0.064

Row | Variant | normalized RNA/DNA level without ligand (log10) (cyclic di-GMP [1]) | normalized RNA/DNA level with ligand (log10) (cyclic di-GMP [2])
97 | UCUGCA | 1.748 ± 0.0085 | 1.85 ± 0.13
98 | AGAGGU | 1.57 ± 0.022 | 1.73 ± 0.077
99 | AGAGGC | 1.665 ± 0.0051 | 1.77 ± 0.13
100 | AGAGGG | 1.47 ± 0.098 | 1.62 ± 0.13
101 | AGACCU | 1.76 ± 0.057 | 1.895 ± 0.0095
102 | AGACCC | 1.79 ± 0.096 | 1.87 ± 0.18
103 | AGACCA | 1.75 ± 0.031 | 1.88 ± 0.15
104 | CCUGAC | 1.649 ± 0.011 | 1.78 ± 0.11
105 | CCUGAG | 1.55 ± 0.077 | 1.76 ± 0.15
106 | CCUGAU | 1.6 ± 0.021 | 1.78 ± 0.14
107 | CCUGAA | 1.32 ± 0.099 | 1.61 ± 0.077
108 | CCUGUC | 1.69 ± 0.019 | 1.87 ± 0.089
109 | CCUGUU | 1.67 ± 0.019 | 1.86 ± 0.084
110 | CCUGUG | 1.54 ± 0.12 | 1.76 ± 0.049
111 | GCUCUC | 1.66 ± 0.026 | 1.81 ± 0.079
112 | GCUCUG | 1.629 ± 0.0036 | 1.8 ± 0.11
113 | CCUUGG | 1.76 ± 0.081 | 1.9 ± 0.15
114 | CCUUGU | 1.75 ± 0.058 | 1.86 ± 0.1
115 | CCUUGC | 1.72 ± 0.059 | 1.83 ± 0.085
116 | CCUUGA | 1.63 ± 0.029 | 1.83 ± 0.095
